Source: the supplement of paper PMC9732359
± gives the uncertainty stated by the source.

Test: protein stability index of a GFP-peptide fusion (yeast GPS) (PSI 1-4); higher = more stable; sorted into four equal gates, so the index is relative within each strain
Conditions: ubr1∆
Method in brief: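 The protein stability index combines read frequencies across sorting gates, each weighted by its gate number and then summed. To obtain those frequencies, a pooled yeast library of GFP fusions to tiled 17-residue yeast protein peptides, on a plasmid also expressing Cherry, was grown to mid-log phase in leucine-free medium. The cells were sorted into four equal gates by GFP/Cherry ratio before plasmid amplification by PCR and Illumina sequencing.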
For VKLPRAFIDERASDLRM [RRP43], the protein stability index was 1.69 ± 0.16. VKMLRDNPGYKASKEIK [SIR3] gave a protein stability index of 3.15 ± 0.11. In the case of VKPLESSAKRSKNTAVS [SRP72], the protein stability index is reported as 2.63 ± 0.05. Sequence VKQEDMPFNDQGIVPDI [RET1] has a protein stability index of 3.17 ± 0.043. Sequence VKTPKKTKYILQRPTAT [CSN12] has a protein stability index of 2.43 ± 0.21. For VKVLAATNRVDVLDPAL [RPT5], the protein stability index was 2.89 ± 0.071. Work on VLAKRMANLSQIYTQRA [SCL1] yielded a protein stability index of 2.69 ± 0.091. For VLARISPELSLQRHLSL [RRP43], the protein stability index was 2.47 ± 0.05. VLESIVARTFWASKYGQ [BRR2] gave a protein stability index of 2.61 ± 0.067. In the case of VLHVSAKGKSGVQTAYI [RRP40], the protein stability index is reported as 2.91 ± 0.24. Work on VLIANDVDPIELVVFLP [RPL8A] yielded a protein stability index of 3 ± 0.058. In the case of VLIAQERSAGNIVQVFK [RPB2], the protein stability index is reported as 3.11 ± 0.064. Work on VLIKMVKMLRDNPGYKA [SIR3] yielded a protein stability index of 3.33 ± 0.036. For VLITDHIEKLENEFVVL [CDC53], the protein stability index was 2.58 ± 0.054. In the case of VLITSYEMVIREKNALK [ISW2], the protein stability index is reported as 2.78 ± 0.043. With VLKFLTDLEKKHLWDQK [RPC17] the protein stability index was 3.47 ± 0.14. Sequence VLLHGASLGIGLAAMGS [RPN2] has a protein stability index of 1.56 ± 0.065. Sequence VLMETKNTQSPQTPLVE [SNU114] has a protein stability index of 2.96 ± 0.11. VLQNVFKLVSTPSSNSN [MED1] showed a protein stability index of 1.36 ± 0.038. In the case of VLTYPEKVTRYNRHKLQ [RPO31], the protein stability index is reported as 1.43 ± 0.05. Work on VMKDIYKVENVTLYWNN [ESC2] yielded a protein stability index of 1.73 ± 0.084. In the case of VMSIESLVEVVFYRGMT [FAS1], the protein stability index is reported as 2.66 ± 0.097. With VNDRYQIPTPNNTVDPG [CSI1] the protein stability index was 1.55 ± 0.048. For VNETEAILYTKPGHVLQ [YGR119C/NUP57], the protein stability index was 3.66 ± 0.21. Work on VNGAKNLVVSGPPQSLY [FAS1] yielded a protein stability index of 2.2 ± 0.052. With VNLPGGILRRKSESDEL [RRP4] the protein stability index was 3.29 ± 0.14. In the case of VPRLFDLVKPKNPKFSN [SMC4], the protein stability index is reported as 2.81 ± 0.052. Sequence VPVALKGQGPFTLTYDI [YMR129W/POM152] has a protein stability index of 2.8 ± 0.061. For VPVRSFKGHSHIVQDCT [ASC1], the protein stability index was 2.83 ± 0.049. VQDALLTNQLYKNHELL [SNF2] gave a protein stability index of 3.14 ± 0.061. Work on VQGKNLLTNFHGMDFTT [RPS1A] yielded a protein stability index of 3.23 ± 0.052. In the case of VQKDTAIIRLHPSIYTQ [POP1], the protein stability index is reported as 1.88 ± 0.14. For VREHYLRSDIPCLSRSC [DIS3], the protein stability index was 2.44 ± 0.033. Sequence VRELVEKIDGMDVDSVK [RPC82] has a protein stability index of 3.3 ± 0.064. For VRIDKALELDDTVVSRV [ECM29], the protein stability index was 3.13 ± 0.097. In the case of VRIPPDQFHRDTISAIT [RPC25], the protein stability index is reported as 1.8 ± 0.032. Work on VRNACKRLIAHDWLNAL [YCG1] yielded a protein stability index of 3.19 ± 0.064. In the case of VRQLYKGKKYQPKDLRA [RPL35A], the protein stability index is reported as 2.92 ± 0.12. VRSLLEVVQTGAKNIEI [PRE6] gave a protein stability index of 3.21 ± 0.069. In the case of VRTNRFDIIEESFKGLQ [ECM29], the protein stability index is reported as 2.26 ± 0.1. VRYEEKRELKQLLEKAP [BRR2] showed a protein stability index of 2.4 ± 0.12. VRYTTSVMPPNEVYSAY [DLS1] gave a protein stability index of 2.9 ± 0.061. Sequence VSANTPKSLNSNININV [SWI1] has a protein stability index of 2.87 ± 0.093. In the case of VSIKDSTGCVVGLSQPD [YMR129W/POM152], the protein stability index is reported as 2.28 ± 0.036. Sequence VSIVKLDTQLITLLPSS [SNF12] has a protein stability index of 1.97 ± 0.051. Work on VSKFYDKINQLSVVKYL [RPN9] yielded a protein stability index of 1.7 ± 0.083. VSKMEKAEKTLKSTKHS [SMC4] gave a protein stability index of 2.83 ± 0.031. With VSLSQLLFIVGQVAIKT [YCS4] the protein stability index was 2.13 ± 0.046. For VSNPLIQRFFALHYLVP [COB], the protein stability index was 1.2 ± 0.041. For VSPTVGKLFSDIKVLKR [YIL149C/MLP2], the protein stability index was 3.17 ± 0.039. For VSTSSGAAANNNDQKRQ [YJL041W/NSP1], the protein stability index was 3.45 ± 0.069. Sequence VTADTVILFDSDWNPQA [ISW2] has a protein stability index of 2.52 ± 0.044. With VTAEDFKQAKERVMKNK [RPT2] the protein stability index was 3.42 ± 0.11. With VTALEVLSLGRPNLPTH [RGR1] the protein stability index was 2.33 ± 0.079. VTIIEPKEEEPILAPSV [RPS3] showed a protein stability index of 2.67 ± 0.13. Sequence VTIWYRAPELLLGARHY [SSN3] has a protein stability index of 1.9 ± 0.072. VTKITDMLLHKYYIVSS [SRB8] showed a protein stability index of 1.57 ± 0.077. In the case of VTKWTNQLTESASHFEQ [YJL041W/NSP1], the protein stability index is reported as 2.83 ± 0.098. For VTLASILTTAVGLVSPS [RPN1], the protein stability index was 2.85 ± 0.087. Work on VTLRKSLYTNTSRKALE [RPL3] yielded a protein stability index of 1.78 ± 0.072. With VTNDDKSDDDDHTVDEI [SRB8] the protein stability index was 3.01 ± 0.045. In the case of VTRFDEKQIEELLDNCI [SRB6], the protein stability index is reported as 3.33 ± 0.12. Work on VTVFLFMLILALFVFYS [COB] yielded a protein stability index of 1.99 ± 0.039. VVARRSNSANVSSPESE [ITC1] gave a protein stability index of 3.18 ± 0.035. VVDRESDIPKTTVQVAE [PRE4] gave a protein stability index of 3.06 ± 0.076. With VVEACGNIVAELAQDPQ [YCS4] the protein stability index was 2.12 ± 0.093. VVKGRVEKTLLSDVAFY [RPO31] showed a protein stability index of 2.52 ± 0.15. For VVRRRFRGNISQPKIGY [RPL32], the protein stability index was 2.92 ± 0.05. VVSCSQHGFEVQVGPMK [RPB7] gave a protein stability index of 3.23 ± 0.12. Sequence VVVKNWGAETDELSMIM [RPS12] has a protein stability index of 3.15 ± 0.14. In the case of VYANNPEVSDDGGLEEE [SIR3], the protein stability index is reported as 3.04 ± 0.09. For VYGEGTSRVTGILLLDS [YJL039C/NUP192], the protein stability index was 3.44 ± 0.091. VYKDNLSFIQVRIDLGT [RPO31] showed a protein stability index of 1.52 ± 0.082. Work on VYLSLLDKDSSQSSAAA [RPN6] yielded a protein stability index of 3.03 ± 0.071. VYLTAVLEYLAAEILEL [HTA1] gave a protein stability index of 2.61 ± 0.075. Sequence VYSVDPLEKITDAYLDQ [PRP8] has a protein stability index of 3.15 ± 0.15. WALKSSLNSMTNAKLPN [RGR1] showed a protein stability index of 2.39 ± 0.05. WDLQLQEKESQIQLAES [SMC4] gave a protein stability index of 3.07 ± 0.06. With WGVNLPAHTVIIKGTDV [BRR2] the protein stability index was 2.58 ± 0.058. With WIAMRREKRDRTHFKRM [PRP8] the protein stability index was 1.93 ± 0.065. Work on WKDFTVEIAFLFRAIYL [YCG1] yielded a protein stability index of 2.26 ± 0.071. In the case of WKLLNQLVLRGLLSQAI [YJR042W/NUP85], the protein stability index is reported as 1.17 ± 0.1. WKPNPSYDVENVNSRNQ [SRB5] showed a protein stability index of 3.3 ± 0.085. For WLEEYHPKLIKNKSGKI [FAS1], the protein stability index was 1.67 ± 0.046. WLKNKFAEENITHKLTK [BRR2] showed a protein stability index of 3.01 ± 0.078. WPTTHKYPLGHFVRDLG [DIS3] gave a protein stability index of 2.49 ± 0.11. WREIIEKVRDYENSISK [IRR1] gave a protein stability index of 2.67 ± 0.047. For WRKWNVKVNHNEKRYAT [RPL4A], the protein stability index was 1.94 ± 0.23. WRQFGNRMQISPDQMRN [GRR1] gave a protein stability index of 2.75 ± 0.11. With WVKKFKWAGIKTRKFVF [CYT1] the protein stability index was 1.27 ± 0.074. WYQFSNSKDHKKITLQL [SIN4] showed a protein stability index of 2.86 ± 0.068. With YDDFIYLSDLKQFFQMT [PCI8] the protein stability index was 2.87 ± 0.051. Sequence YDLLISTLTTISGNPPL [SRB5] has a protein stability index of 2.46 ± 0.04. For YDNGQVFPSSILDITDE [RPP0], the protein stability index was 1.32 ± 0.073. YDRATLTQLLSMMSDGI [RPO31] gave a protein stability index of 1.66 ± 0.038. Work on YDVLHDVFTINPHQKDQ [YML103C/NUP188] yielded a protein stability index of 2.61 ± 0.25. YEGMKLGNHAITIDSVV [YMR129W/POM152] gave a protein stability index of 2 ± 0.15. YELEFDTPTSGKHNLTI [BRR2] showed a protein stability index of 3.23 ± 0.065.
